# Source: US20240092930A1 (MABWELL SHANGHAI BIOSCIENCE, published 2024)
# Changes are numbered by the printed parent chain.
# T1: human Trop-2 on the surface of cells (CHO/Trop-2 cells; BxPC-3 cells; NCI-N87 cells) (human, UniProt P09758 27-323)
# T1 sequence (looked up): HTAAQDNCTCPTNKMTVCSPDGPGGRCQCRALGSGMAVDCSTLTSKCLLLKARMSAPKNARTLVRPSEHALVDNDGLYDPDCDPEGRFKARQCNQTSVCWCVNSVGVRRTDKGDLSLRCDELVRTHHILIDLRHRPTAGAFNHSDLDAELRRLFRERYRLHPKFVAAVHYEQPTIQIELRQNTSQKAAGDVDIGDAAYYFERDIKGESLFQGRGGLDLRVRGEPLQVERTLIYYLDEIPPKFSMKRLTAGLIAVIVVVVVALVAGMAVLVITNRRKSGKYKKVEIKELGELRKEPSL
# T2: recombinant human Trop-2-his protein (ACCESSION NO.: NP_002344.2, AA 1-274) (human, UniProt P09758 27-274)
# T2 construct: range 27-274; also called recombinant human Trop-2 protein; recombinant human Trop-2 extracellular domain; not shown: his tag
# T2 sequence (looked up): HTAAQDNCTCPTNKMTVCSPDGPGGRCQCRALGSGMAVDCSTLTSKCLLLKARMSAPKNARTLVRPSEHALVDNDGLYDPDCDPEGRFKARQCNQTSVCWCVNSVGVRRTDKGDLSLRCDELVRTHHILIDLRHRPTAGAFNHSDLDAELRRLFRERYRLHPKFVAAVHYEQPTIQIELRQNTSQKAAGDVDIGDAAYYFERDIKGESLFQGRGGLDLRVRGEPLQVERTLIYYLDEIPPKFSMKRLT
# B1: chimeric antibody ch4-3 (antibody, human IgG1, V domains shown)
# VH: QVQLQQSGPELVKPGASVKMSCKASGFTFTDYVIGWVKQRTGQGLEWIGEIYLGSGTIYYTEKFKGKATLTADTSSNTAYMQLSSLTSEDSAVYFCARGSIFPFDYWGQGTTLTVSS
# VL: QIVLTQSPAIMSASPGEKVTMTCSASSSVSYMYWYQQKPGSSPRLLIYDTSTLASGVPVRFSGSGSGTSYSLTISRMEAEDAATYYCQQWSSYPYTFGGGTKLEIK
# B2: chimeric antibody ch3-11 (antibody, human IgG1, V domains shown)
# VH: QVQLQQPGAELVKPGSSVKLSCKASGYTFTSYWMYWVKQRPGQGLEWIGEINPSNGRTNYNEKFKSKATLTVDKSSSTAYMQFSSLTSEDSAVYYCTREGHNYDGSLGAMDHWGQGTSVTVSS
# VL: DVVVTQTPLSLPVSFGDQVSISCRSSQSLTNSYGNTFLSWYLHKPGQSPQLLLYGISNRFSGVPDRFSGSGSGTDFTLKINTIKPEDLGMYYCFQSTHQPYTFGGGTKLEIK
# B3: chimeric antibody ch17-1 (antibody, human IgG1, V domains shown)
# VH: EVKLVESGGVLVKPGGSLKLSCAASGFTFSDSAMSWVRQTPEKRLEWVASISRGDDTYYPDSVKGRITISRDFARNILYLQMTSLRSEDTAMYYCTRDRFGFAYWGQGTLVTVSA
# VL: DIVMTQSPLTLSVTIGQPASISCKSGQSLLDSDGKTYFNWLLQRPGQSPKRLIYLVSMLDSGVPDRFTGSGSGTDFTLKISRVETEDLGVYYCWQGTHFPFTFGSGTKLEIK
# B4: chimeric antibody ch11-4 (antibody, human IgG1, V domains shown)
# VH: QVQLQQPGAELVRPGASVNLSCKASGYTFTSYWINWVKQRPGQGLEWIGNIYPSNSYTNYNQKFKDTATLTVDKSSSTAYMQLSSPTSEDSAVYFCSSYRSDGFAYWGQGTLVTVSA
# VL: DILLTQSPAILSVSPGEKVSFSCRASQNIGTSIHWYQQRTNGSPRLLIEFASESISGIPSRFSGSGSGTDFTLTINSVESEDIADYYCQQSNSWPFTFGGGTKLEIK
# B5: chimeric antibody ch23-12 (antibody, human IgG1, V domains shown)
# VH: QVQLQQPGAELVKPGASVKLSCKADGYIFTSYWMHWVKQRPGQGLEWIGEITPSDNYTSYNQKFKGKATLTVDKSSSTAYMQLSSLTSEDSAVYYCTRGHGNYVSFDYWGQGTTLTVSS
# VL: DIQMTQITSSLSASLGDRVTITCRASQDISNYLNWYQQKPDGTVKLLIYYTSRLHSGVPSRFSGSGSGTDYSLTISNLEQEDIATYFCQQGYTLPPYTFGGGTKLEIK
# B6: h11-4-15 (antibody, human IgG1, kappa, name in Kabat numbering, V domains shown)
# VH: EVQLVQSGAEVKKPGASVKVSCKASGYTFTSYWINWVRQAPGQGLEWMGNIYPSNSYTNYNQKFKDRVTMTRDTSTSTVYMELSSLRSEDTAVYYCSSYRSGGFAYWGQGTLVTVSS
# VL: EIVLTQSPATLSLSPGERATLSCRASQNIGTSISWYQQKPGQAPRLLIEFASESISGIPARFSGSGSGTDFTLTISSLEPEDFAVYYCQQSNSWPFTFGGGTKVEIKR
# B7: h11-4-17 (antibody, human IgG1, kappa, name in Kabat numbering, V domains shown)
# VH: B6 VH with G102D
# VL: B6 VL with S34A
# B8: h11-4-16 (antibody, human IgG1, kappa, name in Kabat numbering, V domains shown)
# VH: B6 VH with G102D, G103A
# VL: B6 VL
# B9: h11-4-20 (antibody, human IgG1, kappa, name in Kabat numbering, V domains shown)
# VH: B6 VH with G102D, G103A
# VL: B6 VL with S34A
# B10: h11-4-19 (antibody, human IgG1, kappa, name in Kabat numbering, V domains shown)
# VH: B6 VH
# VL: B6 VL with S34A
# B11: h11-4-18 (antibody, human IgG1, kappa, name in Kabat numbering, V domains shown)
# VH: B6 VH with G102E
# VL: B6 VL with S34A
# Target: T1, human Trop-2 on the surface of cells …
# Experiment: cell-based or functional assay
row,"Internalization percentage, 1 h, NCI-N87 cells, FACS",Binder
1,50.2%,B1

# Target: T2, recombinant human Trop-2-his protein …
# Experiment: ELISA, coated Trop-2-his 0.2 µg/ml
# Method: Plates were coated with recombinant human Trop-2-his protein (ACCESSION NO.: NP_002344.2, AA 1-274) at a concentration of 0.2 μg/ml overnight at 4° C. and then blocked with 5% BSA for 60 min in a constant temperature incubator at 37° C. Chimeric antibodies ch3-11, ch4-3, ch17-1, ch11-4, and ch23-12 and control antibody Sacituzumab (serial dilutions of 8 concentrations in total obtained through 3-fold serially diluting a solution with an initial concentration of 2 μg/ml) were added into the plates which were then incubated in a constant temperature incubator at 37° C. for 60 min. The plates were washed with PBST 4 times, and 1:5000 dilution of HRP-anti-human Fc (Cat.: 109-035-098, Jackson ImmunoResearch) was added into the plates for reaction for 45 min. TMB (Cat.: ME142, GalaxyBio, Beijing) substrate was added for color development for 15 min, and then 2M HCl was added to stop reaction. Absorbances at 450 nm and at 630 nm (as reference wavelength) were read, and A450 nm-630 nm values of the wells in the plates were recorded.
row,EC50,Binder
1,320 pM,B1
2,315 pM,B2
3,328 pM,B3
4,237 pM,B4
5,458 pM,B5

# Target: T2, recombinant human Trop-2-his protein …
# Experiment: BLI, antibody on AHC sensor, Trop-2-his 60 nM
# Method: (§1) 5-6 days after cell transfection, culture supernatants were purified through ProA affinity chromatography column to obtain different humanized antibodies. Affinities of the obtained antibodies were determined by an assay including capturing Fc fragments of the antibodies with anti-human IgG Fc capture (AHC) biosensors using Octet QKe system instrument from Fortebio. For the assay, each of the humanized antibodies and control antibody Sacituzumab was diluted to 4 μg/ml in PBS, and was allowed to flow through the surface of an AHC biosensor (Cat.: 18-0015, PALL) for 120 s. Recombinant human Trop-2-his protein (ACCESSION NO.: NP_002344.2, AA 1-274) was used as a mobile phase, and its concentration was 60 nM. The binding time was 100 s and the dissociation time was 300 s. When the assay was finished, data from which the response values of blank control had been deducted were fitted to a 1:1 Langmuir binding model using software, and then kinetic constants for antigen-antibody binding were calculated.
# Affinities of the antibodies obtained from the combinations of mutants of murine antibody 23-12, chimeric antibody ch23-12 and control antibody Sacituzumab to recombinant human Trop-2-his protein were determined by ForteBijo (Table 5).
row,Kd,Binder
1,715 pM,B5

# Target: T1, human Trop-2 on the surface of cells …
# Experiment: cell-based or functional assay
# Remark: another data set of the same source
row,"Internalization percentage, 1 h, BXPC-3 cells, FACS",Binder
1,30.7%,B1
2,15.5%,B4

# Target: T2, recombinant human Trop-2-his protein …
# Experiment: BLI, antibody on AHC sensor, Trop-2-his 60 nM
# Remark: another data set of the same source
# Method: as §1
# Affinities of the antibodies obtained from the combinations of mutants of murine antibody 11-4, chimeric antibody ch11-4 and control antibody Sacituzumab to recombinant human Trop-2-his protein were determined by ForteBio (Table 11).
row,Kd,Binder
1,389 pM,B6
2,238 pM,B7
3,231 pM,B8
4,210 pM,B9
5,254 pM,B10
6,394 pM,B11
7,264 pM,B4

# Target: T2, recombinant human Trop-2-his protein …
# Experiment: BLI, antibody on AHC sensor, Trop-2-his 60 nM
# Remark: another data set of the same source
# Method: as §1
# Affinities of the antibodies obtained from the combinations of mutants of murine antibody 23-12, chimeric antibody ch4-3 and control antibody Sacituzumab to recombinant human Trop-2-his protein were determined by ForteBio (Table 8).
row,Kd,Binder
1,300 pM,B1

# Target: T2, recombinant human Trop-2-his protein …
# Experiment: BLI, naked antibody on AHC sensor, Trop-2-his 60 nM, 300 s binding
# Method: Affinities of the antibodies were determined by an assay including capturing Fc fragments of the antibodies with anti-human IgG Fc capture (AHC) biosensors using Octet QKe system instrument from Fortebio.
# For the assay, SN38-labeled antibodies prepared as described above: h23-12-SN38, ch4-3-SN38, ch11-4-SN38, and positive control antibody Sacituzumab-SN38, as well as naked antibodies h23-12, ch4-3, ch11-4, and positive control antibody Sacituzumab were diluted to 4 μg/ml with PBS and allowed to flow through the surface of an AHC biosensor (Cat.: 18-0015, PALL) for 120 s. Recombinant human Trop-2-his protein (ACCESSION NO.: NP_002344.2, AA 1-274) was used as a mobile phase, and its concentration was 60 nM. The binding time was 300 s and the dissociation time was 300 s. When the assay was finished, data from which the response value of blank control had been deducted were fitted to a 1:1 Langmuir binding model using software, and then kinetic constants for antigen-antibody binding were calculated.
row,Kd,Binder
1,323 pM,B1
2,176 pM,B4

# Target: T1, human Trop-2 on the surface of cells …
# Experiment: cell-based or functional assay
# Remark: another data set of the same source
"Internalization percentage (%), 1 h, BxPC-3 cells, FACS","Internalization percentage (%), 3 h, BxPC-3 cells, FACS","Internalization percentage (%), 5 h, BxPC-3 cells, FACS",Binder
17.1%,23.1%,28.1%,B1
1.12%,-5.13%,-8.48%,B2
-2%,-7.4%,-9.38%,B4
16.2%,21.1%,27.1%,B5

# Target: T1, human Trop-2 on the surface of cells …
# Experiment: FACS, CHO/Trop-2 cells
# Method: Suspensions of CHO cells recombinantly expressing human Trop-2 (CHO/Trop-2 cells) were incubated with chimeric antibodies ch3-11, ch4-3, ch17-1, ch11-4, and ch23-12 (dilutions at concentrations of 30 μg/ml and 10 μg/ml, and serial dilutions of 9 concentrations obtained through 3-fold serially diluting a solution with an initial concentration of 5 μg/ml, 11 concentrations in total) for 30 min at 37° C. Controls as follows were set: (1) Positive Control (PC): control antibody Sacituzumab; (2) Negative Control (NC): IgG1 isotype control antibody NC-IgG1. The cells were washed 3 times with PBS, and 1:100 dilution of goat anti-human IgG-FITC (Cat.: F9512, Sigma) was added into the cell which then were incubated for 30 min. Then the cells were washed 3 times with PBS again, and the Mean Fluorescence Intensity (MFI) of the cells was measured by a flow cytometer (model B49007AD, SNAW31211, BECKMAN COULTER) to detect binding ability of the chimeric antibodies to human Trop-2 on the surface of CHO cells.
row,EC50,Binder
1,3330 pM,B1
2,993 pM,B2
3,2920 pM,B3
4,1150 pM,B4
5,2750 pM,B5
